Source: patent US20240115717A1 (VRG THERAPEUTICS KFT, published 2024)

Target: phage-displayed CTXD of SEQ ID NO: 24 (bacteriophage M13)
Experiment: Co-bead test, phage display (FIG. 3)

B1: his-tagged MMP-2 (Co-bead test; ProSpec #ENZ-769) (enzyme)
chain: YNFFPRKPKWDKNQITYRIIGYTPDLDPETVDDAFARAFQVWSDVTPLRFSRIHDGEADIMINFGRWEHGDGYPFDGKDGLLAHAFAPGTGVGGDSHFDDDELWTLGEGQVVRVKYGNADGEYCKFPFLFNGKEYNSCTDTGRSDGFLWCSTTYNFEKDGKYGFCPHEALFTMGGNAEGQPCKFPFRFQGTSYDSCTTEGRTDGYRWCGTTEDYDRDKKYGFCPETAMSTVGGNSEGAPCVFPFTFLGNKYESCTSAGRSDGKMWCATTANYDDDRKWGFCPDQGYSLFLVAAHEFGHAMGLEHSQDPGALMAPIYTYTKNFRLSQDDIKGIQELYGASPDIDLGTGPTPTLGPVTPEICKQDIVFDGIAQIRGEIFFFKDRFIWRTVTPRDKPMGPLLVATFWPELPEKIDAVYEAPQEEKAVFFAGNEYWIYSASTLERGYPKPLTSLGLPPDVQRVDAAFNWSKNKKTYIFAGDKFWRYNEVKKKMDPGFPKLIADAWNAIPDNLDAVVDLQGGGHSYFFKGAYYLKLENQSLKSVKFGSIKSDWLGC
notes: range 110-660; also called matrix metalloproteinase 2
Does B1 bind?
Result: binds
